Legend:
APRIL [1] = molecular target: T1, APRIL (Mus musculus, UniProt Q9D777); assay: NNS phage library of TACI CRD2 (positions 78, 79, 84, 92), APRIL selection; assay type: binding, murine; settings: amino acid at position F78; after 3 rounds of sorting; large F′ = favorable
T1 construct: made in house
T1 sequence (Q9D777 105-241): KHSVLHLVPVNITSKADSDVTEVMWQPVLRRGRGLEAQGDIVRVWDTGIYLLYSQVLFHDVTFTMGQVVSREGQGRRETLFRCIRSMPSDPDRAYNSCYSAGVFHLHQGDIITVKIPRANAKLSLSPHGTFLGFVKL
Protocol: (§1) NNS library construction and sorting.
(§2) This new phage library was subjected to sorting against either BAFF, APRIL or the display target antibody. After 3 rounds of sorting, approximately 48 clones were picked from each selection and the DNA sequences of the phage clones were determined. […] The normalized F′ value corrects for display bias and is calculated as the percent occurrence to percent degeneracy ratio for ligand selection divided by the percent occurrence to percent degeneracy ratio for display efficiency. Percent occurrence is calculated by dividing the number of times a particular amino acid appeared at a particular position by the total number of amino acids sequenced at that position followed by multiplying by 100. Percent degeneracy is calculated by dividing the degeneracy in code for a particular amino acid divided by the total degeneracy possible at that position followed by multiplying by 100 (e.g., if only A, G and I were selected, total degeneracy possible would be 5).

BAFF [2] = molecular target: T2, BAFF (Homo sapiens, UniProt Q9Y275); assay: NNS phage library of TACI CRD2 (positions 78, 79, 84, 92), BAFF selection; assay type: binding; settings: amino acid at position F78; after 3 rounds of sorting; large F′ = favorable
T2 construct: made in house
Protocol: as §1, §2

APRIL [3] = molecular target: T1, APRIL; assay: Competitive surface plasmon resonance, APRIL binding to immobilized BCMA-Fc; parameters: species or system murine; settings: competition with immobilized BCMA-Fc
Description: Surface plasmon resonance (SPR) measurements on a BIAcore 3000 instrument (Pharmacia Biosensor) were used to measure binding affinities of receptors to immobilized APRIL and BAFF by competition binding. […] In these experiments, receptors in solution competed for binding of ligand in solution at room temperature with immobilized BCMA-Fc. BCMA-Fc was coupled to flow cell 2 of a CM4 sensor chip, using the amine coupling protocol supplied by the manufacturer, at a high density (4500 resonance units) so that the initial rate of binding was linearly dependent on the concentration of free ligand. In all experiments flow cell 1 was ethanolamine-blocked and used as the reference cell. Washing with 10 mM HCl regenerated flow cells between sample injections. In order to determine the ligand concentration necessary to obtain the optimal for competition experiments, a preliminary binding study was performed for each ligand where two-fold dilutions of the ligand ranging from 400 nM to 6.25 nM were injected over the BCMA-Fc surface. […] The IC50 values were calculated using a four-parameter curve fit (y=((m1−m4)/(1+(m0/m3)̂m2))+m4) of the initial binding rates for the receptor/control (Vi/Vo) as a function of receptor concentration.

BAFF [4] = molecular target: T2, BAFF; assay: Competitive surface plasmon resonance, BAFF binding to immobilized BCMA-Fc; settings: competition with immobilized BCMA-Fc
Description: Surface plasmon resonance (SPR) measurements on a BIAcore 3000 instrument (Pharmacia Biosensor) were used to measure binding affinities of receptors to immobilized APRIL and BAFF by competition binding. […] In these experiments, receptors in solution competed for binding of ligand in solution at room temperature with immobilized BCMA-Fc. BCMA-Fc was coupled to flow cell 2 of a CM4 sensor chip, using the amine coupling protocol supplied by the manufacturer, at a high density (4500 resonance units) so that the initial rate of binding was linearly dependent on the concentration of free ligand. In all experiments flow cell 1 was ethanolamine-blocked and used as the reference cell. Washing with 10 mM HCl regenerated flow cells between sample injections. In order to determine the ligand concentration necessary to obtain the optimal for competition experiments, a preliminary binding study was performed for each ligand where two-fold dilutions of the ligand ranging from 400 nM to 6.25 nM were injected over the BCMA-Fc surface. The concentration of ligand that provided a slope of about 1 for the initial on-rate of the observed sensorgrams was selected as the fixed concentration to be used in the competition experiments. In all experiments where BAFE was the ligand, the buffer used was composed of 10 mM HEPES, pH 7.2, 150 mM NaCl, and 0.005% Tween-20. In all experiments where TRX-APRIL was the ligand selected, the buffer was composed of 20 mM Tris-HCl, pH 8.0, 200 mM NaCl, and 0.005% Tween-20. […] Samples were then passed over the BCMA-Fc-coupled surface. A linear fit of the initial on-rate of the observed sensorgrams was used to calculate the binding rate (V). The IC50 values were calculated using a four-parameter curve fit (y=((m1−m4)/(1+(m0/m3)̂m2))+m4) of the initial binding rates for the receptor/control (Vi/Vo) as a function of receptor concentration.

APRIL [5] = molecular target: T1, APRIL; assay: Competitive ELISA, APRIL; assay type: binding, murine; settings: data not shown
BAFF [6] = molecular target: T2, BAFF; assay: Competitive ELISA, BAFF; assay type: binding; settings: data not shown

T2 sequence (Q9Y275 82-285 limits assumed): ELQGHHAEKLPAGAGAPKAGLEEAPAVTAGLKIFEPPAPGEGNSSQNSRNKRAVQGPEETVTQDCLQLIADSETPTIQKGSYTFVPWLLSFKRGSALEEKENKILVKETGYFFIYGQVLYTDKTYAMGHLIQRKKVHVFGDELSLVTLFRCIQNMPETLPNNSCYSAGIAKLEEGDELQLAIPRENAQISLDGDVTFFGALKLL

F78F: phage-displayed TACI CRD2, wild-type F retained at position 78 (NNS library) (SLSCRKEQGKFYDHLLRDCISCASICGQHPKQCAYFCENKLR; CRD2 phage-displayed; UniProt O14836 68-109, looked up, fragment)
F′ APRIL F78 (APRIL [1]): 2 | F′ BAFF F78 (BAFF [2]): 3

TACI CRD1 Loop Swap: human TACI CRD1 (R32-R67) with residues NHQSQRT substituted by GQHPKQ of hTACI CRD2 (RSCPEEQYWDPLLGTCMSCKTICGQHPKQCAAFCR)
affinity for APRIL, comparison in words (APRIL [3]): increased TACI CRD1 affinity | affinity for BAFF, comparison in words (BAFF [4]): increased TACI CRD1 affinity

TACI_d1: first CRD of TACI (residues 32-67), expressed in E. coli (RSCPEEQYWDPLLGTCMSCKTICNHQSQRTCAAFCR)
IC50 for APRIL, in words (APRIL [3]): in the micromolar range | IC50 for BAFF, in words (BAFF [4]): in the micromolar range | affinity for BAFF, comparison in words (BAFF [4]): an interaction was observed

TACI_d2: second cysteine-rich domain (CRD2, residues 68-109) of TACI, with four additional residues (GSPW) at the N-terminus (GSPWSLSCRKEQGKFYDHLLRDCISCASICGQHPKQCAYFCENKLR)
binding to APRIL, in words (APRIL [5]): sufficient for high-affinity binding | binding to BAFF, in words (BAFF [6]): sufficient for high-affinity binding
